Data reported in paper PMC9170038.

B1: Eterna 7709739 (Same State - Tryptophan B) (ssRNA)
RNA: UAUAUAGUGACGGCCGCCACUAUAUUAAUGUUUAGGUUAGAGUGAUGUUUUGAUUAAUAUUUUUAUAGGACCGGGUUAUAUGUUA
B2: Eterna 7707528 (Exclusion - Tryptophan A) (ssRNA)
RNA: GGGAUGUAGUGAUGUUAUAUUGGAUGUAGACGAGGACCGGUACGGCCGCCACUCGUGAUGGCUGCUAGCACGUUUCGAUGUUUGC
B3: Eterna 6395528 (Inverted Small Loop Exclusion NG 1) (ssRNA)
RNA: ACAUGGUAGUAGAAGGGUAUUACUUUAGAUACAACCAUUUGUUUAGUUUAUACAGGAUAUGCUUACAUGAGGAUCACCCAUGUU
B4: Eterna 7732393 (Same State - FMN B) (ssRNA)
RNA: AUUUUUUUGUCAGGAUAUUAGUGUGGGUUUGGUUUGUUAGUGAUGUUGAUAUUUGUUUUAUGUAUUUAAGAAGGGAUUUAGCGGU
B5: Eterna 6461519 (Inverted Same State NG 1) (ssRNA)
RNA: GUGCCUAACUAGAAGGCCCAAUGCAAAGCAUCGGGAGGAUAUGGGUUUAAUAAAUAAACAUGAGGAUCACCCAUGUGGCACAAA
B6: Eterna 6443967 (Same State NG 2) (ssRNA)
RNA: CUAUAGAUAUGAGGAUAUGUAUAUCCAACAUGAGGAUCACCCAUGUUGAUGAUCACGUAUGUAAAGCAGAAGGCAUAUCUAUAG
B7: Eterna 7662739 (Exclusion - Arginine A) (ssRNA)
RNA: CGCGGGCCACAUGAGGAUCACCCAUGUGAAGGAGCGGCGAAUAAGCCAGGUAGGUCGCGCAUGAAUAAAUCAUGUAGGUGGCGAA
B8: Eterna 6453269 (Small Loop Same State NG 3) (ssRNA)
RNA: CAGCGAUAGCUAAAGUAUCUAUCAGAGGAUAUUCAUGAAACAUGAGGAUCACCCAUGUGAAACUGGGAGAAGGCUGAUAGAUAG
B9: Eterna 6453699 (Inverted Same State NG 2) (ssRNA)
RNA: AGUUUGUUUGAGAAGGUGAAGUGGAAACAUGAGGAUCACCCAUGUAUUAGGAAGCCUGGUUUUGUCAAGGAUAUCGGGUAAACA
B10: Eterna 7653809 (Same State - Theophylline B) (ssRNA)
RNA: UGUAUGUGAUUUGAUACCAGACCAGCUGGUGGUACUUGAGGAACACCCAAGUAGGUUUGGGUCCCUUGGCAGCAAAUCGCAUACU
B11: Eterna 12668 (Exclusion 3) (ssRNA)
RNA: UAAAAGCUAGGAUAUACAUGAGGAUCACCCAUGUCACGGGUCCACUCAUCCUAUACGUGUAGAAGGAGCGACCC
B12: Eterna 15533 (Exclusion 1) (ssRNA)
RNA: UCUCGACAUGAGGAUCACCCAUGUCAGGAUAUUGUGUUUGAGGUUUUUUACCUUUUGACAAGAAGGGAUGUGUG
B13: Eterna 6401867 (Inverted Exclusion NG 1) (ssRNA)
RNA: CCGACGCCUCAGAAGGCACUCGCAUAAUGCGAGUGAGGAUAUGAGGAUCACCCAUAUCAACGUCGGAGUCACCGAAACGGUGAC
B14: Eterna 6373941 (Exclusion NG 3) (ssRNA)
RNA: GUCACGGUUAAUUCCGUGACGCGCAAACCUUGAGGAUCACCCAAGGAUAUCGACGUCAAUGACGUCGAGAAGGUGGUUGAGCGC
B15: Eterna 6033767 (Exclusion 3) (ssRNA)
RNA: AGGGUAGUAGGAUAUACAUGAGGAUCACCCAUGUUUCCAUUACGUGACUGGUCCUAGUGUAGAAGGGCUAGCAC
B16: Eterna 11866 (Sensor v3, turn-off variant 2) (ssRNA)
RNA: CUUAGCCUAAAAUCACGCAAGCUUUCUGCUUGUCUUAAGACAUGAGGAUCACCCAUGUCCGGGCUGAACUUAUGGAA
B17: Eterna 12641 (Exclusion 3) (ssRNA)
RNA: AAUAGCUAAGGAUAUACAUGAGGAUCACCCAUGUAAAACACUACUUGGAACCGCCUCGGUAGAAGGUAGAAAAU
B18: Eterna 9406 (Exclusion 4) (ssRNA)
RNA: UUCAUGUGAGGAUAUGUGAUCUGCUUUCUGUUUAGAUGAUCACAGAAGGCACAUGAGGAUCACCCAUGUAGAUC
B19: Eterna 6080103 (Exclusion 1) (ssRNA)
RNA: CCCGGACAUGAGGAUCACCCAUGUUAGGAUAUCUAGAGGAUCUAAACCGAAUAGAUCCAGAGAAGGGAUGUGGG
B20: Eterna 7652698 (Same State - Arginine A) (ssRNA)
RNA: CGGUCGGUCGGCCGGUGAUUAUGGGAUGAAGGAGCGUGGGAAGCUACAGGUAGGUCGCAUCCGAAACAUCACGAUCACGGAUGUU
B21: Eterna 7734981 (Same State - FMN A) (ssRNA)
RNA: UGUGAGCUGUCGACAAAAGUCGACUAAAGCGAGGAUAUGACGAAAGUCAGAAGGCGUCAAUAAUGGAGUGAUGUUCCUGCUCACU
B22: Eterna 6451659 (Inverted Exclusion NG 1) (ssRNA)
RNA: GCGUGGUUCUAGAAGGUGCUAGCGAUAAGCUAGCAAGGAUAUAGACAUGAGGAUCACCCAUGUCUUAGUGAAAUGGACACACGC
B23: Eterna 5862108 (Exclusion NG 1) (ssRNA)
RNA: UCACGGGAUUGAGGAUAUAUAUUAAUUUUUUUUAUAGAAGGCAAAAUGUUAGAUUAUUCACUAUACAUGAGGAUCACCCAUGUU
B24: Eterna 6381351 (Inverted Exclusion NG 3) (ssRNA)
RNA: CGAUAUAUGAAGGGCGAAAGCCCACAUGAGGAUCACCCAUGUAGAAGGCGGGCCGCAACGCGGCCCGAGGAUAUAUAAUAUACA
B25: Eterna 1752 (Same State - Tryptophan B) (ssRNA)
RNA: CUUUUACAGUCGGCCGCCACUGACAGCACUUCAAAGACAGUAUAAGGGUAGUGAUGUUACUUUAUCAGGACCGGGACUACCUAAC
B26: Eterna 6083193 (Exclusion 6) (ssRNA)
RNA: CCAAGUUCGUAGGAUAUAGAUGCCUUAGGGCAAUUAGAAGGAUGGACAUGAGGAUCACCCAUGUCGGAUUCUGU
B27: Eterna 7697396 (Exclusion - Arginine B) (ssRNA)
RNA: UGAUAGGACAGAAGGAGCGGGCUAGUCAAAGACUAGCAAACGUUAAUAACAGGAGUGAUGUUCCAGGUAGGUCGCUGUCCUAUCU
B28: Eterna 6145156 (Exclusion NG 1) (ssRNA)
RNA: UUAAAUCAUGUAGGAUAUGCAUGGCGAAGCUACGCAGAAGGACAUGAGGAUCACCCAUGUUAUAGCUACCGAAUAAGGUGGCAA
B29: Eterna 5978372 (Brourd's mod of Exclusion 4) (ssRNA)
RNA: GCGUCUCCUGUCAGGAUAUGCACCGGCUCGCCGGCGUAGAAGGGACAUGAGGAUCACCCAUGUGGUCUACACUU
B30: Eterna 6406790 (Exclusion NG 3) (ssRNA)
RNA: GUACUGAAGCUUUGCUUUAGUCGUACAUGAGGAUCACCCAUGUAGGAUAUGGUAGGCUUUGCUUACUAGAAGGAUAGAGUGAUU
B31: Eterna 7670795 (Exclusion - Tryptophan B) (ssRNA)
RNA: GGAUAGGACACGGCCGCCACUACCUAGGAUACUAGCAACAUUUGGGUACGUGAGGAUCACCCACGUAGGACCGGGUGUCCUAUCG

Target: MS2 coat protein, dlFG mutant (Escherichia phage MS2, UniProt P03612, del68-81insG)
Test: 4 mM Mg2+; no ligand; RNA-MaP array; 100 mM Tris-HCl pH 7.5, 80 mM KCl, 4 mM MgCl2, 0.1 mg/mL BSA, 1 mM DTT, 0.01 mg/mL yeast tRNA, 0.01% Tween-20; protein 1.5 nM to 3 uM; 37 C (Table S3)
Settings: chain copies: 2; label: tethered by stalled RNA polymerase

Binder	Kd [nM]
B1	> 3000
B2	> 3000
B3	9.28
B4	> 3000
B5	46
B6	8.38
B7	18.3
B8	14.2
B9	15.2
B10	177
B11	17.4
B12	29.8
B13	11.1
B14	53.8
B15	17
B16	18.5

Binder	Kd [nM]
B17	20.6
B18	141
B19	34.3
B20	74.9
B21	> 3000
B22	4.84
B23	25.5
B24	7.35
B25	> 3000
B26	15.8
B27	> 3000
B28	91.1
B29	84.3
B30	54.4
B31	12.4
